Consider two molecules from patent US20040018191A1.

In general, kon refers to the second-order rate constant of association. As usually defined, the koff is the first-order rate constant of dissociation.

In assay [1] the target is soluble IGFR1 (sIGFR1), NSO-expressed recombinant protein encompassing the alpha-subunit and the extracellular domain of the beta-subunit of IGFR1 (human) (UniProt P08069). The assay is described as follows: SPR (Biacore 3000), IGFR1 on CM-5 chip, 25° C.; 25° C. On the technique in general: SPR reads the build-up and loss of mass on a sensor chip optically.
For assay [2] the target is unchanged. In words: SPR (Biacore 3000), IGFR1 on CM-5 chip, 37° C.; calculated from koff.
The target is the same in assay [3]. In words: SPR (Biacore 3000), IGFR1 on CM-5 chip, 37° C.
The target is the same in assay [4]. In words: isotype ELISA on coated soluble IGFR1, detected with HRP-anti-human IgG3. On the technique in general: ELISA stands for enzyme-linked immunosorbent assay.
For assay [5] the target is unchanged. The assay is described as follows: isotype ELISA on coated soluble IGFR1, detected with HRP-anti-hu-gamma.
Assay [6] has the same target. In words: isotype ELISA on coated soluble IGFR1, detected with HRP-anti-hu kappa.
Assay [7] has the same target. The assay is described as follows: SPR (Biacore 3000), IGFR1 on CM-5 chip, 25° C.
Assay [8] has the same target. The assay is described as follows: SPR (Biacore 3000), IGFR1 on CM-5 chip, 25° C.; calculated from koff.

B1: 15H12 fully human monoclonal anti-IGFR1 antibody (antibody, IgG3, V domains shown)
VH: EVQLVQSGGGLVHPGGSLRLSCAASGFTFSSFAMHWVRQAPGKGLEWISVIDTRGATYYADSVKGRFTISRDNAKNSLYLQMNSLRAEDMAVYYCARLGNFYYGMDVWGQGTTVTVSS
VL: EIVLTQVPDFQSVTPKEKVTITCRASQSIGSSLHWYQQKPDQSPKLLIKYASQSLSGVPSRFSGSGSGTDFTLTINSLEAEDAAAYYCHQSSRLPHTFGGGTKVEIKR
Consider B1, for which the values for the kon in assay [1] and in assay [3] were 500000 M⁻¹ s⁻¹ and 720000 M⁻¹ s⁻¹, respectively. Also, the Half-life was 4.8 h in assay [2] and 8.6 h in assay [8]. Besides, the koff is 4.01e-05 s⁻¹ in assay [3] and 2.24e-05 s⁻¹ in assay [7]. For the same molecule, the ELISA signal (OD415 nm-490 nm) in assay [4] was determined as 0.813 OD; in assay [5], 1.9 OD; in assay [6], 1 OD.

B2: 19D12 fully human monoclonal anti-IGFR1 antibody (antibody, V domains shown)
VH: B1 VH
VL: B1 VL
For B2, the Half-life is 3.91 h in assay [2] and 7.27 h in assay [8]. For the same molecule, the koff came out at 4.93e-05 s⁻¹ in assay [3] and 2.65e-05 s⁻¹ in assay [7]. Further, the kon amounted to 680000 M⁻¹ s⁻¹ in assay [3] and 400000 M⁻¹ s⁻¹ in assay [7].
